Assay results as given in patent publication US20260098059A1 (ENDOMET BIOSCIENCES, published 2026).
Values joined by “and” are separate entries in the source; they are usually repeats but may differ in a detail not shown here. Equal entries are not always repeated.

B1: SEQ ID NO: 413 (peptide)
peptide: ARLPESILDEHVQRVWP
HELM: PEPTIDE1{[ac].[bAla].R.L.P.E.S.I.L.D.E.H.V.Q.R.V.W.P.[am]}$$$$V2.0
SMILES: CC[C@H](C)[C@H](NC(=O)[C@H](CO)NC(=O)[C@H](CCC(=O)O)NC(=O)[C@@H]1CCCN1C(=O)[C@H](CC(C)C)NC(=O)[C@H](CCCNC(=N)N)NC(=O)CCNC(C)=O)C(=O)N[C@@H](CC(C)C)C(=O)N[C@@H](CC(=O)O)C(=O)N[C@@H](CCC(=O)O)C(=O)N[C@@H](Cc1c[nH]cn1)C(=O)N[C@H](C(=O)N[C@@H](CCC(N)=O)C(=O)N[C@@H](CCCNC(=N)N)C(=O)N[C@H](C(=O)N[C@@H](Cc1c[nH]c2ccccc12)C(=O)N1CCC[C@H]1C(N)=O)C(C)C)C(C)C
B2: SEQ ID NO: 410 (peptide)
peptide: ARLPESILDEHVQRVWP
HELM: PEPTIDE1{[bAla].R.L.P.E.S.I.L.D.E.H.V.Q.R.V.W.P.[am]}$$$$V2.0
SMILES: CC[C@H](C)[C@H](NC(=O)[C@H](CO)NC(=O)[C@H](CCC(=O)O)NC(=O)[C@@H]1CCCN1C(=O)[C@H](CC(C)C)NC(=O)[C@H](CCCNC(=N)N)NC(=O)CCN)C(=O)N[C@@H](CC(C)C)C(=O)N[C@@H](CC(=O)O)C(=O)N[C@@H](CCC(=O)O)C(=O)N[C@@H](Cc1c[nH]cn1)C(=O)N[C@H](C(=O)N[C@@H](CCC(N)=O)C(=O)N[C@@H](CCCNC(=N)N)C(=O)N[C@H](C(=O)N[C@@H](Cc1c[nH]c2ccccc12)C(=O)N1CCC[C@H]1C(N)=O)C(C)C)C(C)C
B3: SEQ ID NO: 403 (peptide)
peptide: WAQKILDEHGQRVWG
HELM: PEPTIDE1{W.[meA].Q.K.I.L.D.E.H.[O=C([C@@H](N[*:1])C1CCCCC1)[*:2]].Q.R.V.W.G.[am]}$PEPTIDE1,PEPTIDE1,4:R3-8:R3$$$V2.0
SMILES: CC[C@H](C)[C@@H]1NC(=O)[C@@H](NC(=O)[C@H](CCC(N)=O)NC(=O)[C@H](C)N(C)C(=O)[C@@H](N)Cc2c[nH]c3ccccc23)CCCCNC(=O)CC[C@@H](C(=O)N[C@@H](Cc2c[nH]cn2)C(=O)N[C@H](C(=O)N[C@@H](CCC(N)=O)C(=O)N[C@@H](CCCNC(=N)N)C(=O)N[C@H](C(=O)N[C@@H](Cc2c[nH]c3ccccc23)C(=O)NCC(N)=O)C(C)C)C2CCCCC2)NC(=O)[C@H](CC(=O)O)NC(=O)[C@H](CC(C)C)NC1=O
B4: SEQ ID NO: 405 (peptide)
peptide: WAQKILDEHGQRVWG
HELM: PEPTIDE1{[O=C(O)CCC(=O)[*:2]].W.[meA].Q.K.I.L.D.E.H.[O=C([C@@H](N[*:1])C1CCCCC1)[*:2]].Q.R.V.W.G.[am]}$PEPTIDE1,PEPTIDE1,5:R3-9:R3$$$V2.0
SMILES: CC[C@H](C)[C@@H]1NC(=O)[C@@H](NC(=O)[C@H](CCC(N)=O)NC(=O)[C@H](C)N(C)C(=O)[C@H](Cc2c[nH]c3ccccc23)NC(=O)CCC(=O)O)CCCCNC(=O)CC[C@@H](C(=O)N[C@@H](Cc2c[nH]cn2)C(=O)N[C@H](C(=O)N[C@@H](CCC(N)=O)C(=O)N[C@@H](CCCNC(=N)N)C(=O)N[C@H](C(=O)N[C@@H](Cc2c[nH]c3ccccc23)C(=O)NCC(N)=O)C(C)C)C2CCCCC2)NC(=O)[C@H](CC(=O)O)NC(=O)[C@H](CC(C)C)NC1=O

Tests used:
β-catenin [1] = molecular target: T1, β-catenin (UniProt P35222 134-665, limits assumed, biotinylated in the SPR and plate assays); assay: cell-based or functional assay
T1 sequence (looked up): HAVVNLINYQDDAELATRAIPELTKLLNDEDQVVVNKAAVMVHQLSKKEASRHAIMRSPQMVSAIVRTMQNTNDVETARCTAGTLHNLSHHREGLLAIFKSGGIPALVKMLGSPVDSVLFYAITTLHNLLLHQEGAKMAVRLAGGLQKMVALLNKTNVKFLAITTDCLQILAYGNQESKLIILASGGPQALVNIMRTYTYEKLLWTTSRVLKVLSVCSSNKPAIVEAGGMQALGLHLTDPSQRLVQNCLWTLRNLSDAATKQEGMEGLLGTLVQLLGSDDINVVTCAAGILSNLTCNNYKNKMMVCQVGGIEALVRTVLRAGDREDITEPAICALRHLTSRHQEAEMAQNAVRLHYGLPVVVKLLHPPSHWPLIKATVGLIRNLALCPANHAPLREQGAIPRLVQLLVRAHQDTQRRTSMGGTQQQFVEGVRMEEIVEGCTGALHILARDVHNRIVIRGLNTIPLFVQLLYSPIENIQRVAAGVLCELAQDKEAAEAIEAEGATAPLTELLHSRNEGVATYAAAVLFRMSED

β-catenin [2] = molecular target: T1, β-catenin; assay: competitive FP
Procedure, shortened: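 Competitive fluorescence polarization with inhibitor peptide serially diluted from 10 nM to 30 uM; polarization read at 470 nm excitation, 520 nm emission. Experiments performed three times.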

Row | Binder | Wnt Reporter EC50 (β-catenin [1]) | Kd (β-catenin [2]) | Proliferation IC50, Wnt dependent cells (β-catenin [1]) [µM]
1 | B1 | > 30 µM | ≤ 0.4 µM | –
2 | B2 | > 30 µM | > 0.4 µM and ≤ 1 µM | –
3 | B3 | > 30 µM | ≤ 0.4 µM | –
4 | B4 | > 15 µM and ≤ 22.5 µM | ≤ 0.4 µM | 26.8
